{
  "source": "patent EP4659810A1",
  "key": {"[1]": {"target": "VP1 on BKV genotype II pseudovirions (GBR-12; AB263920) (BK virus genotype II (GBR-12; AB263920)) (UniProt P14996)", "test": "cell-based or functional assay"}, "[2]": {"target": "VP1 on BKV genotype Ia pseudovirions (BK-D; JF894228) (BK virus genotype Ia (BK-D; JF894228)) (UniProt P03088)", "test": "cell-based or functional assay"}, "[3]": {"target": "VP1 on entire replicative virions of BK virus genotype Ia (Dunlop strain; ATCC VR-837) (BK virus genotype Ia (Dunlop strain)) (UniProt P03088)", "test": "cell-based or functional assay"}, "[4]": {"target": "VP1 on entire replicative virions of BKV genotype II (patient's isolate) (BK virus genotype II)", "test": "cell-based or functional assay"}, "[5]": {"target": "VP1 pentamer of BKV genotype I (truncated VP1, residues 31 to 301, C104S) (BK virus genotype I (Dunlop sequence)) (UniProt P03088)", "test": "BLI (OctetRED96e), biotinylated VP1 pentamer on streptavidin sensor, mAb 0 to 40 nM in solution"}},
  "data": [
    {"substance": "MTX005 from Memo Therapeutics AG (referred as 319C07 in WO2021/250097) (antibody)", "values": [
      {"measurement": "IC50, neutralization of BKV pseudovirions (luciferase, 293TT cells)", "setting": "[1]", "result": 0.08, "unit": "ng/mL"},
      {"measurement": "IC50, neutralization of BKV pseudovirions (luciferase, 293TT cells)", "setting": "[2]", "result": 0.03, "unit": "ng/mL"},
      {"measurement": "IC50, neutralization of fully replicative BKV virions (MRC5 cells)", "setting": "[3]", "result": 0.05, "unit": "ng/mL"},
      {"measurement": "IC50, neutralization of fully replicative BKV virions (MRC5 cells)", "setting": "[4]", "result": 0.03, "unit": "ng/mL"},
      {"measurement": "Kd", "setting": "[5]", "result": 17.9, "unit": "nM"}
    ]}
  ]
}
